Source: publication PMC6823300, “The molecular basis of monopolin recruitment to the kinetochore” (Chromosoma, 2019)

B1: S. pombe Csm1 C-terminal globular domain (residues 125–261), wild type [S. pombe] / Sp Mis13 5–17 peptide (Dsn1-N/Box 1), fluorescein isothiocyanate-labelled [modified: fluorescein isothiocyanate-labelled at its N-terminus; fluorescein … (parent complex)
chain 1: NAGADADDTIVKDLKKELENEKKANHSLKNELLKTREQIKNYSKINILIKELFGLEVADCIEDEDGYRFNCKNTGRRGTLEYQLLLDDQNFTFTPRLNVQTDEELMKHLPDYLLEEIIFTKEQGKLFSARLMKALQD
chain 2: PEEQEGFVFVRKG

Variants of: B1
Assay: fluorescence polarisation; point at 250 µM protein (highest concentration shown); parent: 140; read off a plot

| Variant | response [mP] |
| --- | --- |
| chain 1 NAGADADDTIVKDLKKELENEKKANHSLKNELLKTREQIKNYSKINILIKELFGLEVADCIEDEDGYRFNCKNTGRRGTLEYQLLLDDQNFTFTPRLNVQTDEELMKHLPDYLLEEDIFTKEQGKLFSARLMKALQD | ~73 |
